# Laboratory results reported in PMC7199733 (Cell, 2020).
# Legend:
# [1] = molecular target: MERS VHH-55 (His-tagged, mammalian expression) (llama); test: SPR
# [2] = molecular target: DPP4 protein (recombinant, soluble) (UniProt P27487 40-766); test: BLI
# [3] = molecular target: MERS-CoV RBD protein (MERS-CoV England1, UniProt K9N5Q8)
# [4] = molecular target: MERS-CoV RBD (crystallised, tag and glycans removed) (MERS-CoV England1, UniProt K9N5Q8)
# [5] = molecular target: MERS-CoV S1 protein (MERS-CoV England1, UniProt K9N5Q8)
# Sequence of MERS-CoV S1 protein (K9N5Q8 18-751): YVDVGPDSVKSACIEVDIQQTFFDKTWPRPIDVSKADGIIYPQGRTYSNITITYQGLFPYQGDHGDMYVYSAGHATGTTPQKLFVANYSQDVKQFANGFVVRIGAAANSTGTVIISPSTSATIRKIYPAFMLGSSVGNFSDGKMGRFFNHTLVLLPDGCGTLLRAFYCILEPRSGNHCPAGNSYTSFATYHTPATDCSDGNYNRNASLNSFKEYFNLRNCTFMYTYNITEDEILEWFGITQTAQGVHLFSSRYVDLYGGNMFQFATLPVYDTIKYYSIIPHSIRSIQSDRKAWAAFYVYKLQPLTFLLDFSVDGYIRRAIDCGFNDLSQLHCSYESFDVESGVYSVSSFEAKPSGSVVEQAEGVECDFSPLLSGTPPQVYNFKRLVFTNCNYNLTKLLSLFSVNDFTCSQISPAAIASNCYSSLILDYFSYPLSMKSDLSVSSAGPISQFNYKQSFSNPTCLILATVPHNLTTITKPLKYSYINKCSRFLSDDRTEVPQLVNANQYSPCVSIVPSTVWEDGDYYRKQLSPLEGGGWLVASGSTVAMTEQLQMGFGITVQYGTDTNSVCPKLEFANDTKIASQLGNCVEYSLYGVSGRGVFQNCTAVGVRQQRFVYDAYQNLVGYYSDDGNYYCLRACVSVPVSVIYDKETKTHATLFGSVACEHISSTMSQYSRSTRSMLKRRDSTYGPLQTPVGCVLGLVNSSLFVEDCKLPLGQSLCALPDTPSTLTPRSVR
# Sequence of DPP4 protein (recombinant, soluble) (P27487 40-766): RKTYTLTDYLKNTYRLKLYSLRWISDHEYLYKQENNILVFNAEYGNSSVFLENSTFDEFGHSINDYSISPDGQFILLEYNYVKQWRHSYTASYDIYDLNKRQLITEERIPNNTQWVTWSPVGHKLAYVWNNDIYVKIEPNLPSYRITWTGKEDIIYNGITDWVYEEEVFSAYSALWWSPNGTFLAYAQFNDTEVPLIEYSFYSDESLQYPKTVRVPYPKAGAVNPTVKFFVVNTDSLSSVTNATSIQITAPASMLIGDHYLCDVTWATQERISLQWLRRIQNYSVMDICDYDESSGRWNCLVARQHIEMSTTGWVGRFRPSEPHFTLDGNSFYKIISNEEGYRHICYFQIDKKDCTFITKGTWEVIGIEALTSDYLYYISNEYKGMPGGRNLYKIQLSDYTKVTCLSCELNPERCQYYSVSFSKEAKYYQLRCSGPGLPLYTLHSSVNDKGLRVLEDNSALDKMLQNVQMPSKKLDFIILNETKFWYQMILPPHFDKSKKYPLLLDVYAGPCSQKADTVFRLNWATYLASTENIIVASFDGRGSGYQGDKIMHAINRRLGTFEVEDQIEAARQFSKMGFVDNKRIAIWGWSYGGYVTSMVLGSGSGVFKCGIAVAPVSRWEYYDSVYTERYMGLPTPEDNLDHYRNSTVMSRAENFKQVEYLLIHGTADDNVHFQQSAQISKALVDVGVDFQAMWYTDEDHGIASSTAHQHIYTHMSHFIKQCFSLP
molecule,measurement,setting,value
MERS-CoV RBD protein (from UniProt K9N5Q8 367-589) (domain or fragment),Kd,[1],0.0792 nM
Fc-tagged MERS-CoV RBD (domain or fragment) EAKPSGSVVEQAEGVECDFSPLLSGTPPQVYNFKRLVFTNCNYNLTKLLSLFSVNDFTCSQISPAAIASNCYSSLILDYFSYPLSMKSDLSVSSAGPISQFNYKQSFSNPTCLILATVPHNLTTITKPLKYSYINKCSRFLSDDRTEVPQLVNANQYSPCVSIVPSTVWEDGDYYRKQLSPLEGGGWLVASGSTVAMTEQLQMGFGITVQYGTDTNSVCPKLE,binding result,[2],binds
MERS VHH-55 (VHH) VHH: QVQLQESGGGLVQAGGSLRLSCVASGSIFSINAMDWYRQAPGKQRELVAGITSGGSTNYGDFVKGRFTISRDNAKNTVYLQMDSLKPEDTAVYYCAAEVGGWGPPRPDYWGHGTQVTVSS,binding result,[3],binds
same,binding result,[4],binds
same,binding result,[5],binds
